In US20250189530A1 (STCUBE, published 2025):

Columns and labels:
[1] = molecular target: TRIM variant expressed by HEK293T cells; experiment: western blot, relative to WT
[2] = molecular target: peptide 4 variant V374A expressed by HEK293T cells (human); experiment: western blot, relative to WT
[3] = molecular target: peptide 4 variant R367A expressed by HEK293T cells (human); experiment: western blot, relative to WT
[4] = molecular target: peptide 4 variant D369A expressed by HEK293T cells (human); experiment: western blot, relative to WT
[5] = molecular target: peptide 4 variant C375A expressed by HEK293T cells (human); experiment: western blot, relative to WT
[6] = molecular target: peptide 4 WT expressed by HEK293T cells (human); experiment: western blot, relative to WT
[7] = molecular target: peptide 4 variant V364A expressed by HEK293T cells (human); experiment: western blot, relative to WT
[8] = molecular target: peptide 4 variant G365A expressed by HEK293T cells (human); experiment: western blot, relative to WT
[9] = molecular target: peptide 4 variant D366A expressed by HEK293T cells (human); experiment: western blot, relative to WT
[10] = molecular target: peptide 4 variant W370A expressed by HEK293T cells (human); experiment: western blot, relative to WT
[11] = molecular target: peptide 4 variant I372A expressed by HEK293T cells (human); experiment: western blot, relative to WT
[12] = molecular target: peptide 4 variant A371G expressed by HEK293T cells (human); experiment: western blot, relative to WT
[13] = molecular target: peptide 4 variant E361A expressed by HEK293T cells (human); experiment: western blot, relative to WT
[14] = molecular target: peptide 4 variant E363A expressed by HEK293T cells (human); experiment: western blot, relative to WT
[15] = molecular target: peptide 4 variant T368A expressed by HEK293T cells (human); experiment: western blot, relative to WT
[16] = molecular target: peptide 4 variant G373A expressed by HEK293T cells (human); experiment: western blot, relative to WT
[17] = molecular target: peptide 4 variant V362A expressed by HEK293T cells (human); experiment: western blot, relative to WT
[18] = molecular target: T1, BTN1A1 Peptide 4 (human); experiment: KD against BTN1A1-pep4- WT
T1 construct: also called BTN1A1-pep4- WT; Pep4
T1 peptide: EVEVGDRTDWAIGVC

[19] = molecular target: T2, TRIM11 peptide; experiment: KD against BTN1A1-pep4- WT
T2 peptide: EVEVGDRTSWALGVC

[20] = molecular target: T3, BTN1A1 peptide 4 Mutant 9 (D369A) (human); experiment: KD against BTN1A1-pep4- WT
T3 construct: The entry already carries the mutation; also called BTN1A1-pep4- Mutant 9
T3 peptide: EVEVGDRTAWAIGVC

[21] = molecular target: T4, BTN1A1 peptide 4 Mutant 5 (G365A) (human); experiment: KD against BTN1A1-pep4- WT
T4 construct: The entry already carries the mutation; also called BTN1A1-pep4- Mutant 5
T4 peptide: EVEVADRTDWAIGVC

[22] = molecular target: T5, BTN1A1 peptide 4 Mutant 10 (W370A) (human); experiment: KD against BTN1A1-pep4- WT
T5 construct: The entry already carries the mutation; also called BTN1A1-pep4- Mutant 10; mutant peptide #10
T5 peptide: EVEVGDRTDAAIGVC

[23] = molecular target: T6, BTN1A1 peptide 4 Mutant 6 (D366A) (human); experiment: KD against BTN1A1-pep4- WT
T6 construct: The entry already carries the mutation; also called BTN1A1-pep4- Mutant 6; mutant peptide #6
T6 peptide: EVEVGARTDWAIGVC

[24] = molecular target: T7, BTN1A1 peptide 4 Mutant 7 (R367A) (human); experiment: KD against BTN1A1-pep4- WT
T7 construct: The entry already carries the mutation; also called BTN1A1-pep4- Mutant 7
T7 peptide: EVEVGDATDWAIGVC

[25] = molecular target: T8, BTN1A1 peptide 4 Mutant 12 (I372A) (human); experiment: KD against BTN1A1-pep4- WT
T8 construct: The entry already carries the mutation; also called Mutant 12 (1372A); BTN1A1-pep4- Mutant 12
T8 peptide: EVEVGDRTDWAAGVC

[26] = molecular target: T9, BTN1A1 peptide 4 Mutant 8 (T368A) (human); experiment: KD against BTN1A1-pep4- WT
T9 construct: The entry already carries the mutation; also called BTN1A1-pep4- Mutant 8
T9 peptide: EVEVGDRADWAIGVC

[27] = molecular target: T10, BTN1A1 peptide 4 Mutant 11 (A371G) (human); experiment: KD against BTN1A1-pep4- WT
T10 construct: The entry already carries the mutation; also called BTN1A1-pep4- Mutant 11
T10 peptide: EVEVGDRTDWGIGVC

[28] = molecular target: T11, LDHB peptide VIKLKGYTNWAIGLS; experiment: SPR sensorgrams (Response in RU), series 15.625-500 nM
T11 construct: also called l-lactate dehydrogenase B chain (LDHB) isoform X1 peptide
T11 peptide: VIKLKGYTNWAIGLS

[29] = molecular target: T12, MALRD1 peptide TQDSEDDLDWAIGSR; experiment: as above
T12 construct: also called MAM and LDL-receptor class A domain-containing protein 1 isoform X1 peptide
T12 peptide: TQDSEDDLDWAIGSR

B1: STC43H11-1 (antibody, V domains shown)
VH: QSLEESGGRLVTPGGSLTLTCTVSGIDLSSYAMGWVRQAPGEGLEWIGSIGTGGGTGYASWAKGRFTISKTSTTVDLKMTSLTASDTATYFCATSNLWGPGTLVTVSS
VL: QVLTQTASPVSAAVGGTVTINCQASQSVYNNNRCSWFQQKPGQPPKRLIYHTSTLDSGVPSRFKGSGSGTQFTLTISDVQCDDAATYYCLGNYDCSRADCAAFGGGTEVVVK
notes: From immunized New Zealand rabbits; IgG heavy chain and Kappa light chain; also called clone #43H11; Clone 43H11
Question: How did the % binding Rel. Quant. [1] turn out when B1 was run?
Answer: The % binding Rel. Quant. was -0.213%.

Question: And the % binding Rel. Quant. [2]?
Answer: Its % binding Rel. Quant. is 49.6%.

Question: What about the % binding Rel. Quant. [3] of the same binder?
Answer: The % binding Rel. Quant. was 50.1%.

Question: What about the % binding Rel. Quant. [4] of the same binder?
Answer: Its % binding Rel. Quant. is 0.178%.

Question: And the % binding Rel. Quant. [5]?
Answer: Its % binding Rel. Quant. is 277%.

Question: What about the % binding Rel. Quant. [6] of the same binder?
Answer: Its % binding Rel. Quant. is 100%.

Question: What about the % binding Rel. Quant. [7] of the same binder?
Answer: The % binding Rel. Quant. was 26.8%.

Question: And the % binding Rel. Quant. [8]?
Answer: Its % binding Rel. Quant. is 86.8%.

Question: And the % binding Rel. Quant. [9]?
Answer: Its % binding Rel. Quant. is -8.55%.

Question: And the % binding Rel. Quant. [10]?
Answer: Its % binding Rel. Quant. is 8.25%.

Question: What about the % binding Rel. Quant. [11] of the same binder?
Answer: The % binding Rel. Quant. was 0.127%.

Question: And the % binding Rel. Quant. [12]?
Answer: The % binding Rel. Quant. was 9.41%.

Question: And the % binding Rel. Quant. [13]?
Answer: Its % binding Rel. Quant. is 48.3%.

Question: What about the % binding Rel. Quant. [14] of the same binder?
Answer: The % binding Rel. Quant. was 67.6%.

Question: And the % binding Rel. Quant. [15]?
Answer: The % binding Rel. Quant. was 10.4%.

Question: What about the % binding Rel. Quant. [16] of the same binder?
Answer: Its % binding Rel. Quant. is 2.25%.

Question: What about the % binding Rel. Quant. [17] of the same binder?
Answer: Its % binding Rel. Quant. is 247%.

Question: What about the Fold change [18] of the same binder?
Answer: The Fold change was 1 fold.

Question: What about the Fold change [19] of the same binder?
Answer: Its Fold change is 7360 fold.

Question: What about the Fold change [20] of the same binder?
Answer: Its Fold change is 463 fold.

Question: What about the Fold change [21] of the same binder?
Answer: Its Fold change is 20 fold.

Question: What about the Fold change [22] of the same binder?
Answer: Its Fold change is 59 fold.

Question: What about the Fold change [23] of the same binder?
Answer: The Fold change was 160 fold.

Question: And the Fold change [24]?
Answer: The Fold change was 4 fold.

Question: What about the Fold change [25] of the same binder?
Answer: The Fold change was 126 fold.

Question: What about the Fold change [26] of the same binder?
Answer: Its Fold change is 21 fold.

Question: What about the Fold change [27] of the same binder?
Answer: The Fold change was 16 fold.

Question: Does B1 bind [28]?
Answer: Result: no binding (tested: 500 nM)

Question: Does B1 bind [29]?
Answer: Result: no binding (tested: 500 nM)
